The text below walks through data of US20070212390A1.

In assay [1] the target is chimeric receptor consisting of the extracellular domain of human VEGFR-3 and the cytoplasmic domain of the erythropoietin receptor, on Ba/F3 cells (human), P35916. Briefly: cell-based or functional assay.
For assay [2], the target named is chimeric receptor consisting of the extracellular domain of mouse VEGFR-2 and the cytoplasmic domain of the erythropoietin receptor, on Ba/F3 cells (mouse), P35918. The assay is described as follows: cell-based or functional assay.
chimeric receptor consisting of the extracellular domain of mouse VEGFR-2 and the cytoplasmic domain of the erythropoietin receptor, on Ba/F3 cells (mouse), P35918, sequence (P35918 20-762 limits assumed, change not shown, form in doubt): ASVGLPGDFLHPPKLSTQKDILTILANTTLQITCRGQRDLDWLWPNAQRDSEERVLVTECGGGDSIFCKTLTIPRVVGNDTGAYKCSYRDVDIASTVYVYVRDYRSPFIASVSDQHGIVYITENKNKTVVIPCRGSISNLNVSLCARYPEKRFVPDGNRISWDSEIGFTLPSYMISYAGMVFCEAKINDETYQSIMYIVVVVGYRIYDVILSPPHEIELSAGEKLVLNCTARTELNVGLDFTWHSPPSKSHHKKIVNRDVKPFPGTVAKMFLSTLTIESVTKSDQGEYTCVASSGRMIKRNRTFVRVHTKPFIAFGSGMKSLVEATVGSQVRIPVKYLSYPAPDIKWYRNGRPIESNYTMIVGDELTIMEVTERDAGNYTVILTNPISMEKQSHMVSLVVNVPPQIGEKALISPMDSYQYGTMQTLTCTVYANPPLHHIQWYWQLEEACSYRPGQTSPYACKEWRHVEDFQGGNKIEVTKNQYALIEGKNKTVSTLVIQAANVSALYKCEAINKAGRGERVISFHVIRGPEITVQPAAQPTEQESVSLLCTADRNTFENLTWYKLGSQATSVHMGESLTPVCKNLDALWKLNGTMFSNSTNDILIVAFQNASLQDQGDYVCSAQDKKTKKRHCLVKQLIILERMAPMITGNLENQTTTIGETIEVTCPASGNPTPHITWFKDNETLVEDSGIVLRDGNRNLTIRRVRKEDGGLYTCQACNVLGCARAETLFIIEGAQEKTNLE

chimeric receptor consisting of the extracellular domain of human VEGFR-3 and the cytoplasmic domain of the erythropoietin receptor, on Ba/F3 cells (human), P35916, sequence (P35916 25-775 limits assumed, change not shown, form in doubt): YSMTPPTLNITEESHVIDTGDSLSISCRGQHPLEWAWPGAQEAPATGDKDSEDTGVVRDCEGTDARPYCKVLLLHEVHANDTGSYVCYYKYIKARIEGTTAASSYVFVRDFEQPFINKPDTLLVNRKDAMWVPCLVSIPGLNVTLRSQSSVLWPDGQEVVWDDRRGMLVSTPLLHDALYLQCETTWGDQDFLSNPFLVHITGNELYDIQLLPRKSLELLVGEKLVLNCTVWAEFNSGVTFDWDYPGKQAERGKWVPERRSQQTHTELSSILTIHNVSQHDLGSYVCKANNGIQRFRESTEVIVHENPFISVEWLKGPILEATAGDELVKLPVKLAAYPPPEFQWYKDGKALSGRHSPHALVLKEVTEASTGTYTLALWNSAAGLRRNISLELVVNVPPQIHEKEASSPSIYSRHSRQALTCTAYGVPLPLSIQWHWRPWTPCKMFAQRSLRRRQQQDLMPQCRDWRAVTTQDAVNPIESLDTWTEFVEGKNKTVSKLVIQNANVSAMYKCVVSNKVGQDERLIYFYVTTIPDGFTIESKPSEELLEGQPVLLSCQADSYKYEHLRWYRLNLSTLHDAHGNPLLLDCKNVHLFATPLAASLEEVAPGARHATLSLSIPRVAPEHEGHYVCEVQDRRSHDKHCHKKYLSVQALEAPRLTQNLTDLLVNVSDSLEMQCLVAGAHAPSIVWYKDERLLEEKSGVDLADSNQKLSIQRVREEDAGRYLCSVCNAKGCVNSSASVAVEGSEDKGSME

B1: VEGF-D ΔN.IISS (human VEGF-D with R204,205S point mutations and lacking the N-terminal propeptide), O43915 87-354 (ligand)
chain: ARQDYKDDDDKTRFAATFYDIETLKVIDEEWQRTQCSPRETCVEVASELGKSTNTFFKPPCVNVFRCGGCCNEESLICMNTSTSYISKQLFEISVPLTSVPELVPVKVANHTGCKCLPTAPRHPYSIISSSIQIPEEDRCSHSKKLCPIDMLWDSNKCKCVLQEENPLAGTEDHSHLQEPALCGPHMMFDEDRCECVCKTPCPKDLIQHPKNCSCFECKESLETCCQKHKLFHPDTCSCEDRCPFHTRPCASGKTACAKHCRFPKEKRAAQGPHSRKNP
For the molecule B1, the activity in VEGFR-3 bioassay (Ba/F3 cell survival and proliferation, tritiated-thymidine incorporation) in assay [1] amounted to 70 fold. In assay [2], this molecule showed an activity in VEGFR-2 bioassay (Ba/F3 cell survival and proliferation, tritiated-thymidine incorporation) of 70 fold.
